Where two headings read alike, the source gives them in different places.
T1: Recombinant canine CD40/TNFRSF5 protein (his tag) (canine, UniProt Q7YRL5 21-194)
T1 construct: Sino Biological 70105-D08H, expressed in a human cell line from Met1-Ala194; signal peptide Met1-Pro20 predicted cleaved; also called antigen; StP1a (canine CD40)
T1 sequence: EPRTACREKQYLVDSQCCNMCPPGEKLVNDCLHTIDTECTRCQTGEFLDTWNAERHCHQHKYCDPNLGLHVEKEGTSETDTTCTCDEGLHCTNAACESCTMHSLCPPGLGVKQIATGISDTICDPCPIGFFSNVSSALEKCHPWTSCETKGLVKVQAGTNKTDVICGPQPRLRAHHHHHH

T2: Recombinant canine CD40 extracellular domain with human IgG1 Fc domain tag (canine; human, UniProt Q7YRL5 21-194)
T2 construct: extracellular domain; Amine-coupled to a CM5 chip; also called caCD40-Fc; canine CD40-Fc; not shown: human IgG1 Fc domain tag
T2 sequence (looked up): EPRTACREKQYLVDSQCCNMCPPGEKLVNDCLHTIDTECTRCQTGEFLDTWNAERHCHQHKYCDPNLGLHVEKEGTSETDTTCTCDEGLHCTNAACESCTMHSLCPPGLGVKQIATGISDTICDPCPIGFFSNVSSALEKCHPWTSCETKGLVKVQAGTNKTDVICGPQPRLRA


Columns and labels:
[1] = biological target: Recombinant canine CD40 extracellular domain with human IgG1 Fc domain tag (canine; human) (UniProt Q7YRL5); assay: SPR (Biacore T200), single-cycle kinetics, canine CD40-Fc immobilised, antibody 2-32 nM as analyte, bivalent analyte model, first site, average n=5
[2] = biological target: T1, Recombinant canine CD40/TNFRSF5 protein …; assay: ELISA, absorbance on StP1a over absorbance on Irrelevant His Tag (RgN3a)
[3] = biological target: T2, Recombinant canine CD40 extracellular …; assay: SPR (Biacore T200), single-cycle kinetics, canine CD40-Fc immobilised, antibody 2-32 nM as analyte, bivalent analyte model, first site, average n=6
Procedure: (§1) Recombinant canine CD40 extracellular domain with human IgG1 Fc domain tag (canine CD40-Fc) was immobilised to the surface of a Series S Sensor Chip CM5 using an Amine Coupling Kit. The reference surface for analysis was prepared by immobilising human IgG1 isotype control antibody to the Series S Sensor Chip CM5 using the same method.
(§2) Kinetics/affinity analysis was carried out using the Biacore method for single-cycle kinetics. Running buffer was HBS-EP+ buffer, pH 7.4. Injection parameters were sample contact time: 180 seconds, dissociation: 600 seconds, flow rate: 30 μl/min. The concentrations of chimeric anti-CD40 antibodies used for kinetics analysis were 2 nM, 4 nM, 8 nM, 16 nM and 32 nM. Regeneration was with 50 mM NaOH for 30 seconds at 30 μl/min. Experimental data was fitted to a bivalent analyte binding model.

[4] = biological target: T2, Recombinant canine CD40 extracellular …; assay: SPR (Biacore T200), single-cycle kinetics, canine CD40-Fc immobilised, antibody 2-32 nM as analyte, bivalent analyte model, first site, average n=5
Procedure: as §1
as §2, with “purified anti-dog CD40” for “chimeric anti-CD40”

[5] = biological target: T1, Recombinant canine CD40/TNFRSF5 protein …; assay: ELISA, absorbance on StP1a over absorbance on Irrelevant His Tag (RgN3a); remark: listed apart in the source
[6] = biological target: T2, Recombinant canine CD40 extracellular …; assay: SPR (Biacore T200), single-cycle kinetics, canine CD40-Fc immobilised, antibody 2-32 nM as analyte, bivalent analyte model, first site, average n=5; remark: listed apart in the source
Procedure: as §1, §2

| Molecule | Kd [6] [nM] | koff [6] [s⁻¹] | kon [6] [M⁻¹ s⁻¹] | further results |
| --- | --- | --- | --- | --- |
| anti-human CD40 antibody 21.4.1 |  |  |  | Kd [1]: 257 nM; koff [1]: 0.0143 s⁻¹; kon [1]: 58000 M⁻¹ s⁻¹ |
| StP1.RD1.G9.H5 (antibody, V domains shown, also called purified monoclonal antibody from hybridoma cell-line StP1.RD1.G9.H5) VH: QVQLQQSGPELVQPGASVKISCRASGYSFTSYYIHWVKQRPGQGLEWIGWIFPGSGNTKYNEKFRGKATLTADTSSSTAYTQVSSLTSEDSAVYFCARKSPYGNYAMDYWGQGTSVTVSS VL: DILLTQSPAILSVSPGERVSFSCRASQSIGTSIHWYQQRTNGSPRLLIKSASESISGIPSRFSGSGSGTDFTLSINSVESEDIADYYCQQSNSWPYTFGGGTKLEIKRADAAPTVS |  |  |  | positive:negative ratio [2]: 12.4; Kd [3]: 2.85 nM; koff [3]: 0.00106 s⁻¹; kon [3]: 372000 M⁻¹ s⁻¹; Kd [4]: 5.24 nM; koff [4]: 0.00157 s⁻¹; kon [4]: 312000 M⁻¹ s⁻¹ |
| StP1.RE2.D7b.B5 (antibody, V domains shown) VH: QVQLQQSGPELVKPGASVKISCKASGYSFTSYYIHWVKQSPGQGLEWIGWIFPGSGNTKYNEKFKGKATLTADTSSSTAYMQLSSLTSEDSAVYFCARRGTTRDALDYWGQGTSVTVSS VL: DILLTQSPAILSVSPGERVSFSCRASQSIGTSIHWFQQRTNGSPRVLIKYASQSISGIPSRFSGSGSGTDFTLSINSVESEDIADYYCQQSYTWPFTFGSGTKLAIKR |  |  |  | positive:negative ratio [5]: 10.8 |
| SVX-2001A (antibody, also called chimeric dog IgGA, k antibody derived from StP1.RD1.G9.H5) heavy: QVQLQQSGPELVQPGASVKISCRASGYSFTSYYIHWVKQRPGQGLEWIGWIFPGSGNTKYNEKFRGKATLTADTSSSTAYTQVSSLTSEDSAVYFCARKSPYGNYAMDYWGQGTSVTVSSASTTAPSVFPLAPSCGSTSGSTVALACLVSGYFPEPVTVSWNSGSLTSGVHTFPSVLQSSGLHSLSSMVTVPSSRWPSETFTCNVVHPASNTKVDKPVFNECRCTDTPPCPVPEPLGGPSVLIFPPKPKDILRITRTPEVTCVVLDLGREDPEVQISWFVDGKEVHTAKTQSREQQFNGTYRVVSVLPIEHQDWLTGKEFKCRVNHIDLPSPIERTISKARGRAHKPSVYVLPPSPKELSSSDTVSITCLIKDFYPPDIDVEWQSNGQQEPERKHRMTPPQLDEDGSYFLYSKLSVDKSRWQQGDPFTCAVMHETLQNHYTDLSLSHSPGK light: DILLTQSPAILSVSPGERVSFSCRASQSIGTSIHWYQQRTNGSPRLLIKSASESISGIPSRFSGSGSGTDFTLSINSVESEDIADYYCQQSNSWPYTFGGGTKLEIKRNDAQPAVYLFQPSPDQLHTGSASVVCLLNSFYPKDINVKWKVDGVIQDTGIQESVTEQDKDSTYSLSSTLTMSSTEYLSHELYSCEITHKSLPSTLIKSFQRSECQRVD | 1.85 | 0.000659 | 370000 |  |
| SVX-2001B (antibody, also called chimeric dog IgGB, k antibody derived from StP1.RD1.G9.H5) heavy: QVQLQQSGPELVQPGASVKISCRASGYSFTSYYIHWVKQRPGQGLEWIGWIFPGSGNTKYNEKFRGKATLTADTSSSTAYTQVSSLTSEDSAVYFCARKSPYGNYAMDYWGQGTSVTVSSASTTAPSVFPLAPSCGSTSGSTVALACLVSGYFPEPVTVSWNSGSLTSGVHTFPSVLQSSGLYSLSSMVTVPSSRWPSETFTCNVAHPASKTKVDKPVPKRENGRVPRPPDCPKCPAPEMLGGPSVFIFPPKPKDTLLIARTPEVTCVVVDLDPEDPEVQISWFVDGKQMQTAKTQPREEQFNGTYRVVSVLPIGHQDWLKGKQFTCKVNNKALPSPIERTISKARGQAHQPSVYVLPPSREELSKNTVSLTCLIKDFFPPDIDVEWQSNGQQEPESKYRTTPPQLDEDGSYFLYSKLSVDKSRWQRGDTFICAVMHEALHNHYTQESLSHSPGK light: DILLTQSPAILSVSPGERVSFSCRASQSIGTSIHWYQQRTNGSPRLLIKSASESISGIPSRFSGSGSGTDFTLSINSVESEDIADYYCQQSNSWPYTFGGGTKLEIKRNDAQPAVYLFQPSPDQLHTGSASVVCLLNSFYPKDINVKWKVDGVIQDTGIQESVTEQDKDSTYSLSSTLTMSSTEYLSHELYSCEITHKSLPSTLIKSFQRSECQRVD | 3.36 | 0.00155 | 461000 |  |
| SVX-2001C (antibody, also called chimeric dog IgGC, k antibody derived from StP1.RD1.G9.H5) heavy: QVQLQQSGPELVQPGASVKISCRASGYSFTSYYIHWVKQRPGQGLEWIGWIFPGSGNTKYNEKFRGKATLTADTSSSTAYTQVSSLTSEDSAVYFCARKSPYGNYAMDYWGQGTSVTVSSASTTAPSVFPLAPSCGSQSGSTVALACLVSGYIPEPVTVSWNSVSLTSGVHTFPSVLQSSGLYSLSSMVTVPSSRWPSETFTCNVAHPATNTKVDKPVAKECECKCNCNNCPCPGCGLLGGPSVFIFPPKPKDILVTARTPTVTCVVVDLDPENPEVQISWFVDSKQVQTANTQPREEQSNGTYRVVSVLPIGHQDWLSGKQFKCKVNNKALPSPIEEIISKTPGQAHQPNVYVLPPSRDEMSKNTVTLTCLVKDFFPPEIDVEWQSNGQQEPESKYRMTPPQLDEDGSYFLYSKLSVDKSRWQRGDTFICAVMHEALHNHYTQISLSHSPGK light: DILLTQSPAILSVSPGERVSFSCRASQSIGTSIHWYQQRTNGSPRLLIKSASESISGIPSRFSGSGSGTDFTLSINSVESEDIADYYCQQSNSWPYTFGGGTKLEIKRNDAQPAVYLFQPSPDQLHTGSASVVCLLNSFYPKDINVKWKVDGVIQDTGIQESVTEQDKDSTYSLSSTLTMSSTEYLSHELYSCEITHKSLPSTLIKSFQRSECQRVD | 3.36 | 0.00172 | 519000 |  |
| SVX-2001D (antibody, also called chimeric dog IgGD, k antibody derived from StP1.RD1.G9.H5) heavy: QVQLQQSGPELVQPGASVKISCRASGYSFTSYYIHWVKQRPGQGLEWIGWIFPGSGNTKYNEKFRGKATLTADTSSSTAYTQVSSLTSEDSAVYFCARKSPYGNYAMDYWGQGTSVTVSSASTTAPSVFPLAPSCGSTSGSTVALACLVSGYFPEPVTVSWNSGSLTSGVHTFPSVLQSSGLYSLSSTVTVPSSRWPSETFTCNVVHPASNTKVDKPVPKESTCKCISPCPVPESLGGPSVFIFPPKPKDILRITRTPEITCVVLDLGREDPEVQISWFVDGKEVHTAKTQPREQQFNSTYRVVSVLPIEHQDWLTGKEFKCRVNHIGLPSPIERTISKARGQAHQPSVYVLPPSPKELSSSDTVTLTCLIKDFFPPEIDVEWQSNGQPEPESKYHTTAPQLDEDGSYFLYSKLSVDKSRWQQGDTFTCAVMHEALQNHYTDLSLSHSPGK light: DILLTQSPAILSVSPGERVSFSCRASQSIGTSIHWYQQRTNGSPRLLIKSASESISGIPSRFSGSGSGTDFTLSINSVESEDIADYYCQQSNSWPYTFGGGTKLEIKRNDAQPAVYLFQPSPDQLHTGSASVVCLLNSFYPKDINVKWKVDGVIQDTGIQESVTEQDKDSTYSLSSTLTMSSTEYLSHELYSCEITHKSLPSTLIKSFQRSECQRVD | 2.6 | 0.000932 | 359000 |  |

Source: patent US20260146099A1 (SELVAX, published 2026)
